EP4813396A2 (Amphivena Therapeutics, Inc., dated 2026)
“And” between values parts separate entries of the source, which are not always exact repeats. Equal values may be shown once.

Key:
human CD33 on cells [1] = target: T1, human CD33 on cells (human, UniProt P20138 18-364); test: cell-based or functional assay
human CD3 on T cells [2] = target: T2, human CD3 on T cells (human, UniProt P07766 23-207); test: cell-based or functional assay
human CD33 on cells [3] = target: T1, human CD33 on cells; test: flow cytometry, HL-60 cells
human CD33 on cells [4] = target: T1, human CD33 on cells; test: flow cytometry, titration on KG-1 cells
human CD33 on cells [5] = target: T1, human CD33 on cells; test: flow cytometry, titration on HL-60 cells
human CD33 on cells [6] = target: T1, human CD33 on cells; test: flow cytometry, titration on U-937 cells
human CD3 on T cells [7] = target: T2, human CD3 on T cells; test: flow cytometry, human T-cells (as headed in Table 10)
human CD3 on T cells [8] = target: T2, human CD3 on T cells; test: flow cytometry, titration on human CD3+ T cells (Jurkat per paragraph 124/paragraph 125)
[9] = target: cynomolgus CD33 on CHO cells (cynomolgus monkey); test: flow cytometry; KD on CHO-cynomolgus CD33 cells divided by KD on CHO-human CD33 cells
human CD33 on cells [10] = target: T1, human CD33 on cells; test: cell-based or functional assay; remark: listed apart in the source
human CD33 on cells [11] = target: T1, human CD33 on cells; test: cell-based or functional assay; remark: listed apart in the source
human CD33 on cells [12] = target: T1, human CD33 on cells; test: cell-based or functional assay; remark: listed apart in the source

T1 sequence (P20138 18-364): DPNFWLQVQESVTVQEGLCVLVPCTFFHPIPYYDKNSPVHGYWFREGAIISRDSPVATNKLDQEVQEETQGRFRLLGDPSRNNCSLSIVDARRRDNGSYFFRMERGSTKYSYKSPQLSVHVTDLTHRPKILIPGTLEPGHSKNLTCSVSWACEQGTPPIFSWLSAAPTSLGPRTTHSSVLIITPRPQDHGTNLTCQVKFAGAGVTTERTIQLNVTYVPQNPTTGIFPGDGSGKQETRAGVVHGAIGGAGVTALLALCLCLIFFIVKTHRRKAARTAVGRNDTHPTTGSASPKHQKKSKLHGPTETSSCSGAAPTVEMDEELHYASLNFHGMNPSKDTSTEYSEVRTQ
T2 sequence (P07766 23-207): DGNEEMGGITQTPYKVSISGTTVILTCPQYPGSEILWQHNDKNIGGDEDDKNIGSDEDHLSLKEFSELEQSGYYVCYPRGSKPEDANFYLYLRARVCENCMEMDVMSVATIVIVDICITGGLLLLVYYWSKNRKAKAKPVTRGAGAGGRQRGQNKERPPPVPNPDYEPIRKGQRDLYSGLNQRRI

Row | Binder | CD25 Induction EC50 (pM) (human CD3 on T cells [2]) | CD69 Induction EC50 (pM) (human CD3 on T cells [2]) | T cell Proliferation in PBMC EC50 (pM) (human CD3 on T cells [2]) | Kd (human CD33 on cells [3]) | Kd (human CD33 on cells [4]) | Kd (human CD33 on cells [5]) | Kd (human CD33 on cells [6]) | Kd (human CD3 on T cells [7]) | Kd (human CD3 on T cells [8]) | KD ratio cynoCD33/ huCD33 [9] | IC50, lysis of KG-1 cells with human T cells (E:T 5:1, 24 h) (human CD33 on cells [10]) | EC50 [pM (pg/mL)] on human CD33+ target cell lines: mean of HL-60, U-937, KG-1 (human CD33 on cells [11]) | EC50 on HL-60 [pM] (cytotoxicity) (human CD33 on cells [1]) | EC50 [pM (pg/mL)] on human CD33+ target cell lines: HL-60 (cytotoxicity, E:T 5:1, 20-24 h) (human CD33 on cells [11]) | EC50 [pM (pg/mL)] on human CD33+ target cell lines: KG-1 (cytotoxicity, E:T 5:1, 20-24 h) (human CD33 on cells [11]) | EC50 [pM (pg/mL)] on human CD33+ target cell lines: U-937 (cytotoxicity, E:T 5:1, 20-24 h) (human CD33 on cells [11]) | other results
1 | CD33/CD3 tandem diabody 07 (bispecific antibody, Non-covalent homodimer; domain order 1; also called TandAb 07; tandem diabody 7) DIQMTQSPSSLSASVGDRVTITCRSSTGAVTTSNYANWVQQKPGKAPKALIGGTNKRAPGVPSRFSGSLIGDKATLTISSLQPEDFATYYCALWYSNLWVFGQGTKVEIKGGSGGSQVQLQESGGGVVQPGRSLRLSCAASGFSFSNYGIHWVRQAPGKGLEWVALISYDGNKKFYADSVKGRFAISRDTSKNTVDLQMTSLRPEDTAVYYCAKDRLESAAFDYWGQGTLVTVSSGGSGGSSYELTQPPSVSVAPGQTAMITCGGNNIGSTTVHWYQQKPGQAPVLVVYDDNERPSGIPERFSGSNSGSTATLTINRVEAGDEADYYCQVWDSGSDHVVFGGGTKLTVLGGSGGSEVQLVESGGGLVQPGGSLRLSCAASGFTFSTYAMNWVRQAPGKGLEWVGRIRSKYNNYATYYADSVKDRFTISRDDSKNSLYLQMNSLKTEDTAVYYCARHGNFGNSYVSYFAYWGQGTLVTVSSAAAGSHHHHHH | 134 pM | 65 pM | 50 pM | 13.7 nM | 47.9 nM | 13.7 nM | 47.1 nM | 49.7 nM | 49.7 nM | 45.8 |  |  | 17.8 pM |  |  |  | 
2 | CD33/CD3 tandem diabody 12 (bispecific antibody, Non-covalent homodimer; domain order 1; also called TandAb 12) DIQMTQSPSSLSASVGDRVTITCRSSTGAVTTSNYANWVQQKPGKAPKALIGGTNKRAPGVPSRFSGSLIGDKATLTISSLQPEDFATYYCALWYSNLWVFGQGTKVEIKGGSGGSQVQLVQSGAEVKKPGASVKVSCKASGYTFTSYDINWVRQAPGQGLEWMGWMNPNSGNTGFAQKFQGRVTMTRDTSTSTVYMELSSLRSEDTAVYYCARDRAVTDYYYGMDVWGQGTLVTVSSGGSGQSVLTQPPSASGTPGQRVTISCSGSRSNIGSNTVNWYQQLPGTAPKLLIYGNNQRPSGVPDRFSGSKSGTSASLAISGLQSEDEADYYCATWDDSLIGWVFGGGTKLTVLGGSGGSEVQLVESGGGLVQPGGSLRLSCAASGFTFSTYAMNWVRQAPGKGLEWVGRIRSKYNNYATYYADSVKDRFTISRDDSKNSLYLQMNSLKTEDTAVYYCARHGNFGNSYVSYFAYWGQGTLVTVSSAAAGSHHHHHH | 6 pM | 3 pM | 2 pM | 0.3 nM | 0.9 nM | 0.3 nM | 0.5 nM | 1.5 nM | 1.5 nM | 1.7 | ~0.01 pM | 1.1 pM and 116 pg/mL | 1.3 pM | 1.3 pM and 137 pg/mL | 1.2 pM and 126 pg/mL | 0.8 pM and 84 pg/mL | EC50 [pM] mean, cytotoxicity on BV-173 cells (human CD33 on cells [12]): 1.4 pM; EC50 [pM] mean, cytotoxicity on CHO-CD33 cells (human CD33 on cells [12]): 11.8 pM; EC50 [pM] mean, cytotoxicity on HL-60 cells (human CD33 on cells [12]): 1.4 pM; EC50 [pM] mean, cytotoxicity on K562 cells (human CD33 on cells [12]): 4.5 pM; EC50 [pM] mean, cytotoxicity on KASUMI-1 cells (human CD33 on cells [12]): 1.3 pM; EC50 [pM] mean, cytotoxicity on KG-1 cells (human CD33 on cells [12]): 1 pM; EC50 [pM] mean, cytotoxicity on RPMI-8226 cells (human CD33 on cells [12]): 14 pM; EC50 [pM] mean, cytotoxicity on THP-1 cells (human CD33 on cells [12]): 1.9 pM; EC50 [pM] mean, cytotoxicity on U-937 cells (human CD33 on cells [12]): 0.9 pM
3 | CD33/CD3 tandem diabody 17 (bispecific antibody, Non-covalent homodimer; domain order 1; also called TandAb 17) DIQMTQSPSSLSASVGDRVTITCRSSTGAVTTSNYANWVQQKPGKAPKALIGGTNKRAPGVPSRFSGSLIGDKATLTISSLQPEDFATYYCALWYSNLWVFGQGTKVEIKGGSGGSQVQLVQSGAEVKKPGESLKISCKGSGYSFTSYWIGWVRQMPGKGLEWMGIIYPGDSDTRYSPSFQGQVTISADKSISTAYLQWSSLKASDTAMYYCARHKRGSDAFDIWGQGTTVTVSSGGSGQSVLTQPPSVSGAPGQRVTISCTGSSSNIGAGYDVHWYQQLPGTAPKLLIYGNSNRPSGVPDRFSGSKSGTSASLAITGLQAEDEADYYCQSYDSSLSDVVFGGGTKLTVLGGSGGSEVQLVESGGGLVQPGGSLRLSCAASGFTFSTYAMNWVRQAPGKGLEWVGRIRSKYNNYATYYADSVKDRFTISRDDSKNSLYLQMNSLKTEDTAVYYCARHGNFGNSYVSYFAYWGQGTLVTVSSAAAGSHHHHHH | 30 pM | 114 pM | 30 pM | 5 nM | 52.5 nM | 5 nM | 24.4 nM | 3.3 nM | 3.3 nM | 1.9 |  |  | 18.4 pM |  |  |  | 
4 | CD33/CD3 tandem diabody 13 (bispecific antibody, Non-covalent homodimer; domain order 1; also called TandAb 13) DIQMTQSPSSLSASVGDRVTITCRSSTGAVTTSNYANWVQQKPGKAPKGLIGGTNKRAPGVPSRFSGSLIGTDFTLTISSLQPEDFATYYCALWYSNLWVFGQGTKVEIKGGSGGSQVQLVQSGAEVKKPGASVKVSCKASGYTFTSYDINWVRQAPGQGLEWMGWMNPNSGNTGFAQKFQGRVTMTRDTSTSTVYMELSSLRSEDTAVYYCARDRAVTDYYYGMDVWGQGTLVTVSSGGSGQSVLTQPPSASGTPGQRVTISCSGSRSNIGSNTVNWYQQLPGTAPKLLIYGNNQRPSGVPDRFSGSKSGTSASLAISGLQSEDEADYYCATWDDSLIGWVFGGGTKLTVLGGSGGSEVQLVESGGGLVQPGGSLRLSCAASGFTFSTYAMNWVRQAPGKGLEWVGRIRSKYNNYATYYADSVKDRFTISRDDSKNSLYLQMNSLKTEDTAVYYCARHGNFGNSYVSWFAYWGQGTLVTVSS | 30 pM | 22 pM | 23 pM | 0.2 nM | 0.3 nM | 0.2 nM | 0.5 nM | 55.7 nM | 55.7 nM | 1.6 |  |  | 1.1 pM |  |  |  | 

The remaining binders from weak to strong by Kd (human CD33 on cells [3]), led by results:

Row | CD25 Induction EC50 (pM) (human CD3 on T cells [2]) | CD69 Induction EC50 (pM) (human CD3 on T cells [2]) | T cell Proliferation in PBMC EC50 (pM) (human CD3 on T cells [2]) | Kd (human CD33 on cells [3]) | Kd (human CD33 on cells [4]) | Kd (human CD33 on cells [5]) | Kd (human CD33 on cells [6]) | Kd (human CD3 on T cells [7]) | Kd (human CD3 on T cells [8]) | KD ratio cynoCD33/ huCD33 [9] | IC50, lysis of KG-1 cells with human T cells (E:T 5:1, 24 h) (human CD33 on cells [10]) | EC50 [pM (pg/mL)] on human CD33+ target cell lines: mean of HL-60, U-937, KG-1 (human CD33 on cells [11]) | Binder | EC50 on HL-60 [pM] (cytotoxicity) (human CD33 on cells [1]) | EC50 [pM (pg/mL)] on human CD33+ target cell lines: HL-60 (cytotoxicity, E:T 5:1, 20-24 h) (human CD33 on cells [11]) | EC50 [pM (pg/mL)] on human CD33+ target cell lines: KG-1 (cytotoxicity, E:T 5:1, 20-24 h) (human CD33 on cells [11]) | EC50 [pM (pg/mL)] on human CD33+ target cell lines: U-937 (cytotoxicity, E:T 5:1, 20-24 h) (human CD33 on cells [11]) | other results
5 | 9 pM | 5 pM | 6 pM | 2.8 nM | 3.6 nM | 2.8 nM | 5.4 nM | 6.3 nM | 6.3 nM | 37.3 | ~5 pM |  | CD33/CD3 tandem diabody 19 (bispecific antibody, Non-covalent homodimer; domain order 1; also called TandAb 19) DIQMTQSPSSLSASVGDRVTITCRSSTGAVTTSNYANWVQQKPGKAPKALIGGTNKRAPGVPSRFSGSLIGDKATLTISSLQPEDFATYYCALWYSNLWVFGQGTKVEIKGGSGGSQVQLVQSGAEVKKPGASVKVSCKASGYTFTSYYMHWVRQAPGQGLEWMGIINPSGGSTSYAQKFQGRVTMTRDTSTSTVYMELSSLRSEDTAVYYCARDVVPAAIDYYGMDVWGQGTTVTVSSGGSGQSVLTQPPSASGTPGQRVTISCSGSSSNIGSNTVNWYQQLPGTAPKLLIYSDNQRPSGVPDRFSGSKSGSSASLAISGLQSDDEADYYCATWDDSLNGAVFGGGTKLTVLGGSGGSEVQLVESGGGLVQPGGSLRLSCAASGFTFSTYAMNWVRQAPGKGLEWVGRIRSKYNNYATYYADSVKDRFTISRDDSKNSLYLQMNSLKTEDTAVYYCARHGNFGNSYVSYFAYWGQGTLVTVSSAAAGSHHHHHH | 5.7 pM |  |  |  | 
6 | 10 pM | 7 pM | 6 pM | 0.3 nM | 0.3 nM | 0.3 nM | 1.2 nM | 2.1 nM | 2.1 nM | 1 |  | 2.6 pM and 273 pg/mL | CD33/CD3 tandem diabody 14 (bispecific antibody, Non-covalent homodimer; domain order 1; also called TandAb 14) DIQMTQSPSSLSASVGDRVTITCRSSTGAVTTSNYANWVQQKPGKAPKALIGGTNKRAPGVPSRFSGSLIGDKATLTISSLQPEDFATYYCALWYSNLWVFGQGTKVEIKGGSGGSQVQLVQSGAEVKKPGASVKVSCKASGYTFTSYDINWVRQAPGQGLEWMGWMNPNSGNTGFAQKFQGRVTMTRDTSTSTVYMELSSLRSEDTAVYYCARDRANTDFSYGMDVWGQGTLVTVSSGGSGQSVLTQPPSASGTPGQRVTISCSGSRSNIGSNTVNWYQQLPGTAPKLLIYGNNQRPSGVPDRFSGSKSGSSASLAISGLQSEDEADYYCATWDDSLIGWVFGGGTKLTVLGGSGGSEVQLVESGGGLVQPGGSLRLSCAASGFTFSTYAMNWVRQAPGKGLEWVGRIRSKYNNYATYYADSVKDRFTISRDDSKNSLYLQMNSLKTEDTAVYYCARHGNFGNSYVSYFAYWGQGTLVTVSSAAAGSHHHHHH | 1.6 pM | 1.6 pM and 168 pg/mL | 2.6 pM and 273 pg/mL | 3.6 pM and 378 pg/mL | 
